Measured values as given in publication PMC2734569, “Functional mapping of the fission yeast DNA polymerase δ B-subunit Cdc1 by site-directed and random pentapeptide insertion mutagenesis” (BMC Molecular Biology, 2009).
Positions count from the first letter of the chain named.

Assays:
Experiment in all cases: two-hybrid; LexA-Cdc1 bait (pBTM116 or pBTM116BN) with Gal4-Pol3 prey and co-expressed c-myc-tagged Cdc27 (pAA-Cdc27) in S. cerevisiae CTY10-5d; ONPG liquid culture beta-galactosidase assay, mean of triplicates, as percent of wild-type Cdc1
Settings in all cases: partners not purified
Cdc1-J16 = target: T1, Cdc1-J16 (Schizosaccharomyces pombe, UniProt P87324 1-462, Val-GlyGlyThrProVal-Asp)
T1 construct: Cdc1, S. pombe, with a pentapeptide inserted after residue 160; source: yeast two-hybrid fusion, in S. cerevisiae CTY10-5d
T1 sequence (looked up): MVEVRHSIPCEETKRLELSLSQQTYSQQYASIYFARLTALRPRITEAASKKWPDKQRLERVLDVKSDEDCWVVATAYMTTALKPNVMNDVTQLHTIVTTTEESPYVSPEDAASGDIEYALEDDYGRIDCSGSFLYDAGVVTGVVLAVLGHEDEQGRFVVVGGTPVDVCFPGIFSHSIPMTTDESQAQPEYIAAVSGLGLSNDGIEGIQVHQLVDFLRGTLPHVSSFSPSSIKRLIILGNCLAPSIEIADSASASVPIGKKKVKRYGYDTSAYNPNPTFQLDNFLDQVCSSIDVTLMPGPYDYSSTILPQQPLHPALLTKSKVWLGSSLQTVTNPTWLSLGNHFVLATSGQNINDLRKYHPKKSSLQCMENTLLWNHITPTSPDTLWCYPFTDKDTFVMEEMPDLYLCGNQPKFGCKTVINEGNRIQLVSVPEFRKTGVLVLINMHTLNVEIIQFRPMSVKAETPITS

Cdc1-A2 = target: T2, Cdc1-A2 (Schizosaccharomyces pombe, UniProt P87324 1-462, Gly293Ala)
T2 construct: Cdc1, S. pombe, point mutant; source: yeast two-hybrid fusion, in S. cerevisiae CTY10-5d
T2 sequence (looked up): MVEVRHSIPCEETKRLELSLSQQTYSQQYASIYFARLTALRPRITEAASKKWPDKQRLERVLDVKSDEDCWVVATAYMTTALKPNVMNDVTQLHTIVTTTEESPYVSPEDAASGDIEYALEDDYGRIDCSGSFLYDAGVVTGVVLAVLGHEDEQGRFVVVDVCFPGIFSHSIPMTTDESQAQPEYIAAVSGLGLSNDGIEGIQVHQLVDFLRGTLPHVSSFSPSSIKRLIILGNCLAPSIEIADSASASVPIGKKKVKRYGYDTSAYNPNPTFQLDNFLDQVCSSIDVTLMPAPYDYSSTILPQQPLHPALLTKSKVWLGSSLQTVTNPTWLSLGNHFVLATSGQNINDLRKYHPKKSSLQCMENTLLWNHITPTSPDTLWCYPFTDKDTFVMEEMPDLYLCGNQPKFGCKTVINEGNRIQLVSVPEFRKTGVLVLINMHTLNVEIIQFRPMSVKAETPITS

Cdc1-A3 = target: T3, Cdc1-A3 (Schizosaccharomyces pombe, UniProt P87324 1-462, Asp296Ala)
T3 construct: Cdc1, S. pombe, point mutant; source: yeast two-hybrid fusion, in S. cerevisiae CTY10-5d
T3 sequence (looked up): T2 sequence (looked up) with A293G, D296A

Cdc1-J7 = target: T4, Cdc1-J7 (Schizosaccharomyces pombe, UniProt P87324 1-462, Met-GlyValProLeuMet-Glu)
T4 construct: Cdc1, S. pombe, with a pentapeptide inserted after residue 393; source: yeast two-hybrid fusion, in S. cerevisiae CTY10-5d
T4 sequence (looked up): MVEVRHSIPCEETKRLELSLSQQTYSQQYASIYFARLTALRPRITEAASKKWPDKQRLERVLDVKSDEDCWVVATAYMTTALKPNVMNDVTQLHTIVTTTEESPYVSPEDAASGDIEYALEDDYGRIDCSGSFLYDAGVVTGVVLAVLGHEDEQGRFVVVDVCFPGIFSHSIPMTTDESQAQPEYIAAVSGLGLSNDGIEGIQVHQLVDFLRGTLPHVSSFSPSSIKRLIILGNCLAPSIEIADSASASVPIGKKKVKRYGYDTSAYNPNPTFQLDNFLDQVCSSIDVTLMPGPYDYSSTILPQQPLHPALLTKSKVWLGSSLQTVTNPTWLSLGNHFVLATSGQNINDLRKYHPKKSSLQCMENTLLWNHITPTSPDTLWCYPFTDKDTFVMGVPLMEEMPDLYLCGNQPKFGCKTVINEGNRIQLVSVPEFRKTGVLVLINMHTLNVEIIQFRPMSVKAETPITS

Measured: two-hybrid beta-galactosidase activity, % of wild-type Cdc1

B1: Pol3 (fission yeast DNA polymerase delta catalytic subunit) (natural protein, Schizosaccharomyces pombe, UniProt P30316 1-1086, looked up)
chain: MTDRSSNEGVVLNKENYPFPRRNGSIHGEITDVKRRRLSERNGYGDKKGSSSKEKTSSFEDELAEYASQLDQDEIKSSKDQQWQRPALPAINPEKDDIYFQQIDSEEFTEGSVPSIRLFGVTDNGNSILVHVVGFLPYFYVKAPVGFRPEMLERFTQDLDATCNGGVIDHCIIEMKENLYGFQGNEKSPFIKIFTTNPRILSRARNVFERGEFNFEELFPVGVGVTTFESNTQYLLRFMIDCDVVGMNWIHLPASKYQFRYQNRVSNCQIEAWINYKDLISLPAEGQWSKMAPLRIMSFDIECAGRKGVFPDPSIDPVIQIASIVTQYGDSTPFVRNVFCVDTCSQIVGTQVYEFQNQAEMLSSWSKFVRDVDPDVLIGYNICNFDIPYLLDRAKSLRIHNFPLLGRIHNFFSVAKETTFSSKAYGTRESKTTSIPGRLQLDMLQVMQRDFKLRSYSLNAVCSQFLGEQKEDVHYSIITDLQNGTADSRRRLAIYCLKDAYLPQRLMDKLMCFVNYTEMARVTGVPFNFLLARGQQIKVISQLFRKALQHDLVVPNIRVNGTDEQYEGATVIEPIKGYYDTPIATLDFSSLYPSIMQAHNLCYTTLLDSNTAELLKLKQDVDYSVTPNGDYFVKPHVRKGLLPIILADLLNARKKAKADLKKETDPFKKAVLDGRQLALKVSANSVYGFTGATNGRLPCLAISSSVTSYGRQMIEKTKDVVEKRYRIENGYSHDAVVIYGDTDSVMVKFGVKTLPEAMKLGEEAANYVSDQFPNPIKLEFEKVYFPYLLISKKRYAGLFWTRTDTYDKMDSKGIETVRRDNCPLVSYVIDTALRKMLIDQDVEGAQLFTKKVISDLLQNKIDMSQLVITKALSKTDYAAKMAHVELAERMRKRDAGSAPAIGDRVAYVIIKGAQGDQFYMRSEDPIYVLENNIPIDAKYYLENQLSKPLLRIFEPILGEKASSLLHGDHTRTISMAAPSVGGIMKFAVKVETCLGCKAPIKKGKTALCENCLNRSAELYQRQVAQVNDLEVRFARLWTQCQRCQGSMHQDVICTSRDCPIFYMRIAEHKKLQQSVDLLKRFDEMSW
notes: DNA polymerase delta catalytic subunit Pol3, S. pombe; prey plasmid named pACT-Pol3 in the results and pGAD2F-Pol3 in the methods; also called Gal4-Pol3; pACT-Pol3; source: yeast two-hybrid fusion, in S. cerevisiae CTY10-5d
< 1%: all assays above
